According to paper PMC3832242:

Molecular target: linked SSB dimer with the D. radiodurans linker (SSB-LD-Drl) (E. coli | D. radiodurans)
Test: AUC

stoichiometry N: 2
Substance: linked SSB dimer with the D. radiodurans linker (SSB-LD-Drl)
